Test results published in publication PMC4608764, “The Q Motif Is Involved in DNA Binding but Not ATP Binding in ChlR1 Helicase” (PLoS ONE, 2015).
Values belong to the molecule of their own block, whether it stands above or below them.

Tests used:
ChlR1 (DDX11), = target: T1, ChlR1 (DDX11), (Homo sapiens, UniProt Q96FC9, Q23A); test: nitrocellulose filter-binding (dot blot) assay
T1 sequence (Q96FC9 1-906 isoform Q96FC9-2 Q23A): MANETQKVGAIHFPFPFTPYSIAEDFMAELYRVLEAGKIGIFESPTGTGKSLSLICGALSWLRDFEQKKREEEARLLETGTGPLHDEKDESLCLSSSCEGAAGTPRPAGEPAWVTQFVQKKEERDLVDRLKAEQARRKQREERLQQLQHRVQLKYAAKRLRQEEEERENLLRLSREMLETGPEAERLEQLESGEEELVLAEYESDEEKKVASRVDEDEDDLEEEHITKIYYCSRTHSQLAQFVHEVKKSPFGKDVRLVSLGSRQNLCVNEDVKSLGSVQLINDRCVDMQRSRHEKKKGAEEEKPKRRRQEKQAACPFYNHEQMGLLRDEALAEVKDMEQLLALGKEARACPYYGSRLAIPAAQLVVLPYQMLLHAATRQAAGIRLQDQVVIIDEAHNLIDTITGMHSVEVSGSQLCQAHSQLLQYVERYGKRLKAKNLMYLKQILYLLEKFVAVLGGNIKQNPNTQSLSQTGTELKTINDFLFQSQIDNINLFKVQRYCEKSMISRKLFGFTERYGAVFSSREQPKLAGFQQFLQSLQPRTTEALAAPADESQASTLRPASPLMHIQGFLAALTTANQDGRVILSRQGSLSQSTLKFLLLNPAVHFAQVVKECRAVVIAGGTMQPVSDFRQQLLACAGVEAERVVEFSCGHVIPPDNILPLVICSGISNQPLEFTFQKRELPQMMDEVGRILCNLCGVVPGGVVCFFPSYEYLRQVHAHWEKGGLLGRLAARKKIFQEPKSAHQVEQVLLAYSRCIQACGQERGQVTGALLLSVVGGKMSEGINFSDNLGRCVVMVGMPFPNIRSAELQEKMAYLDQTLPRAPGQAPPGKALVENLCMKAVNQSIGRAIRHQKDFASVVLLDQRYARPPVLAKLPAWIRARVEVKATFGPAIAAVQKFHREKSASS

ChlR1 (DDX11), ChlR1-WT = target: T2, ChlR1 (DDX11), ChlR1-WT (Homo sapiens, UniProt Q96FC9); test: nitrocellulose filter-binding (dot blot) assay
T2 sequence (Q96FC9 1-906 isoform Q96FC9-2): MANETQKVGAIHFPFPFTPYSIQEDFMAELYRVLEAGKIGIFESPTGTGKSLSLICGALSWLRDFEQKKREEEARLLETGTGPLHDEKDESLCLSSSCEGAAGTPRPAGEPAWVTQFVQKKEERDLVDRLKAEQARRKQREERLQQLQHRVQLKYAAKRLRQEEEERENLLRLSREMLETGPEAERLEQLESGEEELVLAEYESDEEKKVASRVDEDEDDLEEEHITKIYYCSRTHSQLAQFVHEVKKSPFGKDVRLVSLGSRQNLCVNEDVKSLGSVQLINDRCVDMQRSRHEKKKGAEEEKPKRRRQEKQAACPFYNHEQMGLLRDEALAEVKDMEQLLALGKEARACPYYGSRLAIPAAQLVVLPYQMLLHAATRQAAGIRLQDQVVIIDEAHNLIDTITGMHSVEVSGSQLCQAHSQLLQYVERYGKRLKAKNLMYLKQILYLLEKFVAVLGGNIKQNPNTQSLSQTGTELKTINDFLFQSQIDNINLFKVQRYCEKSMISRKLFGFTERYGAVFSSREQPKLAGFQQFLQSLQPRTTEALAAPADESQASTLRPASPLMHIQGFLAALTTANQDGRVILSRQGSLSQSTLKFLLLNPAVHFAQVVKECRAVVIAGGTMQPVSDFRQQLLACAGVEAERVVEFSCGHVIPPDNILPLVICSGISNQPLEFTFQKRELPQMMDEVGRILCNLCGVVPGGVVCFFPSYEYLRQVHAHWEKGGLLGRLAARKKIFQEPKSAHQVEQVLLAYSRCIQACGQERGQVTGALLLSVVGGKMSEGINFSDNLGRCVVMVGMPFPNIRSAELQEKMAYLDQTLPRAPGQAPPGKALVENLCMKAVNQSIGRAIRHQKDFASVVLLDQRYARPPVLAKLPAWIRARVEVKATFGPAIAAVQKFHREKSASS

ChlR1-WT [1] = target: T3, ChlR1-WT (Homo sapiens, UniProt Q96FC9-2 1-906); test: fluorescence anisotropy; apparent Kd, no ATP, 21 C, 10 nM DNA; EMSA: 40 mM Tris-HCl pH 7.4, 25 mM KCl, 5 mM MgCl2, 2 mM DTT, 2% glycerol, 100 ng/uL BSA, no ATP, 0.5 nM DNA, room temp 30 min; anisotropy: same buffer, 21 C; filter binding: 25 mM Tris-HCl pH 7.5, 25 mM KOAc, 1 mM Mg(OAc)2, 1 mM DTT, 100 ug/mL BSA, 37 C 30 min; details: protein: recombinant; tags: FLAG; fork, 19 bp duplex; 5' ssDNA tail 26 nt (DC26) and 3' ssDNA tail 25 nt (TSTEM25)
T3 sequence: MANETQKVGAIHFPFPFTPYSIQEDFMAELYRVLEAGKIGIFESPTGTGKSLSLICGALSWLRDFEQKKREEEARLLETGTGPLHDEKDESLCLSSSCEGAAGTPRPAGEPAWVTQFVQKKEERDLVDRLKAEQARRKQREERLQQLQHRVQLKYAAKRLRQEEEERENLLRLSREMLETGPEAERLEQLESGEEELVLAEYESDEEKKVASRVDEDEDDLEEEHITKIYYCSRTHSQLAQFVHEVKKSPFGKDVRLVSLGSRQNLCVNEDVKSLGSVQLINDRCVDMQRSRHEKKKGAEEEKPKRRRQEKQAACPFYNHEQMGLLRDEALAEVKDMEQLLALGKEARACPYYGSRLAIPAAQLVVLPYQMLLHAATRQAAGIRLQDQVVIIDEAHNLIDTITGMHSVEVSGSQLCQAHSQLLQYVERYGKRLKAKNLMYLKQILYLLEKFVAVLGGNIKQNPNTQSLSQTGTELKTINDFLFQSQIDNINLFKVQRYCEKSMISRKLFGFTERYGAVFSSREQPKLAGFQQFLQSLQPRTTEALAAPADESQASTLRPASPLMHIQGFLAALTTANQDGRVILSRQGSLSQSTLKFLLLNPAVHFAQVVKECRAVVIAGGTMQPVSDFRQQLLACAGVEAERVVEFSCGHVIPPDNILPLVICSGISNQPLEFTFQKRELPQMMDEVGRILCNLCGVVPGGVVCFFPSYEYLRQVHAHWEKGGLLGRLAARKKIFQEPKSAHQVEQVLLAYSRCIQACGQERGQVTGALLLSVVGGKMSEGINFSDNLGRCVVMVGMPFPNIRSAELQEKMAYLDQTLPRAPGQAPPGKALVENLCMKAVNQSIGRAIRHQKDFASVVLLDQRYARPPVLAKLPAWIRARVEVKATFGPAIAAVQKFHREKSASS

ChlR1-Q23A [2] = target: T4, ChlR1-Q23A (Homo sapiens, UniProt Q96FC9-2 1-906, Q23A); test: as above; details: protein: recombinant; tags: FLAG; fork, 19 bp duplex; 5' ssDNA tail 26 nt (DC26) and 3' ssDNA tail 25 nt (TSTEM25)
T4 sequence: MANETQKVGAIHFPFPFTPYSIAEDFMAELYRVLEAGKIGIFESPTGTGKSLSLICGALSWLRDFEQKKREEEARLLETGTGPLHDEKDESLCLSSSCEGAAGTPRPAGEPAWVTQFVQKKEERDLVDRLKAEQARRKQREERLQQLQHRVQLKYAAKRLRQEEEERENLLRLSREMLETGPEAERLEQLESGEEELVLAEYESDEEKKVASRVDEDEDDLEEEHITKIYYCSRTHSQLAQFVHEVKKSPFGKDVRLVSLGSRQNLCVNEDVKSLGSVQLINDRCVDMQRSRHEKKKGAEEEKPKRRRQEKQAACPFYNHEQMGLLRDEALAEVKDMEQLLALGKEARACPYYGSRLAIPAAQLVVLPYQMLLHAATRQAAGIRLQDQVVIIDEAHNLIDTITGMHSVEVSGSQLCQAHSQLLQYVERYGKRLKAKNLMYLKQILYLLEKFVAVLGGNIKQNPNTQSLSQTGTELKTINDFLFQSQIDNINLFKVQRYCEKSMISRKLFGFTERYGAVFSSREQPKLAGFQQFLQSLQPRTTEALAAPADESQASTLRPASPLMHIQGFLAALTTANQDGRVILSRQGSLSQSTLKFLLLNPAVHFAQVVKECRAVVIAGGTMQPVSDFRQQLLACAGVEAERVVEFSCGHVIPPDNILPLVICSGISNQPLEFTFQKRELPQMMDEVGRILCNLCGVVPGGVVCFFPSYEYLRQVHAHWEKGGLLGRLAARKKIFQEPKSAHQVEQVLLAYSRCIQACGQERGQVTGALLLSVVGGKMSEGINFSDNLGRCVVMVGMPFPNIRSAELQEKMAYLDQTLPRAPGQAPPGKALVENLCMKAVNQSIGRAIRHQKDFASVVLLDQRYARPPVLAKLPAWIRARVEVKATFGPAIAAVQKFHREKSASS

ChlR1-WT [3] = target: T3, ChlR1-WT; test: filter binding; 37 C, 1 mM Mg(OAc)2; EMSA: 40 mM Tris-HCl pH 7.4, 25 mM KCl, 5 mM MgCl2, 2 mM DTT, 2% glycerol, 100 ng/uL BSA, no ATP, 0.5 nM DNA, room temp 30 min; anisotropy: same buffer, 21 C; filter binding: 25 mM Tris-HCl pH 7.5, 25 mM KOAc, 1 mM Mg(OAc)2, 1 mM DTT, 100 ug/mL BSA, 37 C 30 min; details: protein: recombinant; tags: FLAG; label: 32P (5' end); fork, 19 bp duplex; 5' ssDNA tail 26 nt (DC26) and 3' ssDNA tail 25 nt (TSTEM25)
ChlR1-Q23A [4] = target: T4, ChlR1-Q23A; test: as above; details: protein: recombinant; tags: FLAG; label: 32P (5' end); fork, 19 bp duplex; 5' ssDNA tail 26 nt (DC26) and 3' ssDNA tail 25 nt (TSTEM25)
[5] = substrate: Nc1ncnc2c1ncn2[C@@H]1O[C@H](COP(=O)(O)OP(=O)(O)OP(=O)(O)O)[C@@H](O)[C@H]1O; test: [γ-32P]ATP hydrolysis, thin-layer chromatography; assay type: biochemical, Homo sapiens; details: 2.1 nM M13mp18 ssDNA, ATP 31-4000 μM, 1 mM Mg acetate, pH 7.5, 37 °C, 30 min, kcat measured separately at 8.5 mM ATP

Kd (ChlR1 (DDX11),): 43.8 nM
Kd (ChlR1 (DDX11), ChlR1-WT): 51.8 nM
Molecule: Nc1ncnc2c1ncn2[C@@H]1O[C@H](COP(=O)(O)OP(=O)(O)OP(=O)(O)O)[C@@H](O)[C@H]1O [ATP]

B1: Forked duplex (DC26/TSTEM25), fluorescein (dsDNA)
DNA 1: TTTTTTTTTTTTTTTTTTTTTTCCCAGTAAAACGACGGCCAGTGC
DNA 2: GCACTGGCCGTCGTTTTACGGTCGTGACTGGGAAAACCCTGGCG
Kd (ChlR1-WT [1]): 520 nM
Kd (ChlR1-Q23A [2]): 1000 nM

B2: Forked duplex (DC26/TSTEM25) (dsDNA)
DNA 1: TTTTTTTTTTTTTTTTTTTTTTCCCAGTAAAACGACGGCCAGTGC
DNA 2: GCACTGGCCGTCGTTTTACGGTCGTGACTGGGAAAACCCTGGCG
Kd (ChlR1-WT [3]): 106 nM
Kd (ChlR1-Q23A [4]): 398 nM

B3: ChlR1 (DDX11), ChlR1-WT (Homo sapiens) (protein)
chain: MANETQKVGAIHFPFPFTPYSIQEDFMAELYRVLEAGKIGIFESPTGTGKSLSLICGALSWLRDFEQKKREEEARLLETGTGPLHDEKDESLCLSSSCEGAAGTPRPAGEPAWVTQFVQKKEERDLVDRLKAEQARRKQREERLQQLQHRVQLKYAAKRLRQEEEERENLLRLSREMLETGPEAERLEQLESGEEELVLAEYESDEEKKVASRVDEDEDDLEEEHITKIYYCSRTHSQLAQFVHEVKKSPFGKDVRLVSLGSRQNLCVNEDVKSLGSVQLINDRCVDMQRSRHEKKKGAEEEKPKRRRQEKQAACPFYNHEQMGLLRDEALAEVKDMEQLLALGKEARACPYYGSRLAIPAAQLVVLPYQMLLHAATRQAAGIRLQDQVVIIDEAHNLIDTITGMHSVEVSGSQLCQAHSQLLQYVERYGKRLKAKNLMYLKQILYLLEKFVAVLGGNIKQNPNTQSLSQTGTELKTINDFLFQSQIDNINLFKVQRYCEKSMISRKLFGFTERYGAVFSSREQPKLAGFQQFLQSLQPRTTEALAAPADESQASTLRPASPLMHIQGFLAALTTANQDGRVILSRQGSLSQSTLKFLLLNPAVHFAQVVKECRAVVIAGGTMQPVSDFRQQLLACAGVEAERVVEFSCGHVIPPDNILPLVICSGISNQPLEFTFQKRELPQMMDEVGRILCNLCGVVPGGVVCFFPSYEYLRQVHAHWEKGGLLGRLAARKKIFQEPKSAHQVEQVLLAYSRCIQACGQERGQVTGALLLSVVGGKMSEGINFSDNLGRCVVMVGMPFPNIRSAELQEKMAYLDQTLPRAPGQAPPGKALVENLCMKAVNQSIGRAIRHQKDFASVVLLDQRYARPPVLAKLPAWIRARVEVKATFGPAIAAVQKFHREKSASS
Km [5]: 415.7 ± 58.4 µM
kcat [5]: 1073.3 ± 46.7 s⁻¹
